# Measured values reported in the supplement of paper PMC10567573.
# B1: INTS3 (parent)
# chain: FHPIKETVVEEPVDITPYLDQLDE
# Variants of: B1
# Test: protein stability index of a GFP-peptide fusion (GPS, HEK-293T) (PSI 1-6); higher = more stable
# Settings: c terminus: a fixed tail appended
# 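Note: lentivirally expressed fusions sorted by FACS into six bins by GFP to DsRed ratio, PSI derived from sequencing read proportions per bin multiplied by bin number.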
row,Variant,protein stability index
1,FHPIKETVMEEPVDITPYLDQLDE,3.69
2,FHPIKETVDEEPVDITPYLDQLDE,3.62
3,FHPIKETVCEEPVDITPYLDQLDE,2.89
4,FHPIKETVNEEPVDITPYLDQLDE,3.81
5,FHPIKETVFEEPVDITPYLDQLDE,2.65
6,FHPIKETVQEEPVDITPYLDQLDE,3.77
7,FHPIKETVKEEPVDITPYLDQLDE,3.3
8,FHPIKETVSEEPVDITPYLDQLDE,3.25
9,FHPIKETVPEEPVDITPYLDQLDE,3.62
10,FHPIKETVGEEPVDITPYLDQLDE,3.93
11,FHPIKETVWEEPVDITPYLDQLDE,2
12,FHPIKETVAEEPVDITPYLDQLDE,3.72
13,FHPIKETVHEEPVDITPYLDQLDE,3.05
14,FHPIKETVEEEPVDITPYLDQLDE,4.25
15,FHPIKETVREEPVDITPYLDQLDE,3.08
16,FHPIKETVIEEPVDITPYLDQLDE,3.04
17,FHPIKETVLEEPVDITPYLDQLDE,3.19
18,FHPIKETVYEEPVDITPYLDQLDE,2.97
19,FHPIKETVTEEPVDITPYLDQLDE,3.22
20,FHPIKETVVQEPVDITPYLDQLDE,2.99
21,FHPIKETVVTEPVDITPYLDQLDE,2.56
22,FHPIKETVVVEPVDITPYLDQLDE,2.12
23,FHPIKETVVCEPVDITPYLDQLDE,2.19
24,FHPIKETVVYEPVDITPYLDQLDE,1.8

row,Variant,protein stability index
1,FHPIKETVVMEPVDITPYLDQLDE,2.16
2,FHPIKETVVPEPVDITPYLDQLDE,2.98
3,FHPIKETVVLEPVDITPYLDQLDE,2.69
4,FHPIKETVVIEPVDITPYLDQLDE,2.08
5,FHPIKETVVNEPVDITPYLDQLDE,2.59
6,FHPIKETVVAEPVDITPYLDQLDE,2.39
7,FHPIKETVVGEPVDITPYLDQLDE,2.8
8,FHPIKETVVKEPVDITPYLDQLDE,1.84
9,FHPIKETVVDEPVDITPYLDQLDE,3.24
10,FHPIKETVVFEPVDITPYLDQLDE,1.54
11,FHPIKETVVHEPVDITPYLDQLDE,2.56
12,FHPIKETVVREPVDITPYLDQLDE,2.1
13,FHPIKETVVSEPVDITPYLDQLDE,2.54
14,FHPIKVTVVEEPVDITPYLDQLDE,1.87
15,FHPIKTTVVEEPVDITPYLDQLDE,3.28
16,FHPIKYTVVEEPVDITPYLDQLDE,1.75
17,FHPIKWTVVEEPVDITPYLDQLDE,1.91
18,FHPIKETVVEPPVDITPYLDQLDE,2.95
19,FHPIKETVVEDPVDITPYLDQLDE,3.15
20,FHPIKETVVECPVDITPYLDQLDE,2.78
21,FHPIKETVVEHPVDITPYLDQLDE,2.87
22,FHPIKETVVELPVDITPYLDQLDE,2.76
23,FHPIKETVVEAPVDITPYLDQLDE,2.73
24,FHPIKETVVEMPVDITPYLDQLDE,2.93

row,Variant,protein stability index
1,FHPIKETVVERPVDITPYLDQLDE,2.49
2,FHPIKETVVEIPVDITPYLDQLDE,1.77
3,FHPIKETVVEQPVDITPYLDQLDE,3.53
4,FHPIKETVVEGPVDITPYLDQLDE,3.19
5,FHPIKETVVENPVDITPYLDQLDE,2.98
6,FHPIKETVVEFPVDITPYLDQLDE,1.92
7,FHPIKETVVEKPVDITPYLDQLDE,3.02
8,FHPIKETVVESPVDITPYLDQLDE,2.81
9,FHPIKETRVEEPVDITPYLDQLDE,3.03
10,FHPIKETDVEEPVDITPYLDQLDE,3.9
11,FHPIKETTVEEPVDITPYLDQLDE,3.53
12,FHPIKETLVEEPVDITPYLDQLDE,3.56
13,FHPIKETMVEEPVDITPYLDQLDE,2.95
14,FHPIKETAVEEPVDITPYLDQLDE,3.87
15,FHPIKETWVEEPVDITPYLDQLDE,2.54
16,FHPIKETCVEEPVDITPYLDQLDE,3.76
17,FHPIKETYVEEPVDITPYLDQLDE,3.06
18,FHPIKETSVEEPVDITPYLDQLDE,3.38
19,FHPIKETKVEEPVDITPYLDQLDE,3.49
20,FHPIKETHVEEPVDITPYLDQLDE,3.19
21,FHPIKETQVEEPVDITPYLDQLDE,4.21
22,FHPIKETEVEEPVDITPYLDQLDE,4.18
23,FHPIKETFVEEPVDITPYLDQLDE,2.73
24,FHPIKETPVEEPVDITPYLDQLDE,3.73

row,Variant,protein stability index
1,FHPIKETNVEEPVDITPYLDQLDE,3.59
2,FHPIKETIVEEPVDITPYLDQLDE,2.88
3,FHPIKETGVEEPVDITPYLDQLDE,3.91
4,FHPIKELVVEEPVDITPYLDQLDE,2.7
5,FHPIKENVVEEPVDITPYLDQLDE,3.55
6,FHPIKEFVVEEPVDITPYLDQLDE,2.32
7,FHPIKEIVVEEPVDITPYLDQLDE,3.06
8,FHPIKEGVVEEPVDITPYLDQLDE,4.18
9,FHPIKEAVVEEPVDITPYLDQLDE,3.73
10,FHPIKEQVVEEPVDITPYLDQLDE,3.26
11,FHPIKEHVVEEPVDITPYLDQLDE,3.35
12,FHPIKEDVVEEPVDITPYLDQLDE,3.85
13,FHPIKEYVVEEPVDITPYLDQLDE,2.88
14,FHPIKEWVVEEPVDITPYLDQLDE,2.89
15,FHPIKEEVVEEPVDITPYLDQLDE,4.19
16,FHPIKEMVVEEPVDITPYLDQLDE,3.55
17,FHPIKEPVVEEPVDITPYLDQLDE,3.31
18,FHPIKEKVVEEPVDITPYLDQLDE,2.91
19,FHPIKEVVVEEPVDITPYLDQLDE,3.12
20,FHPIKERVVEEPVDITPYLDQLDE,3.04
21,FHPIKESVVEEPVDITPYLDQLDE,3.57
22,FHPIKECVVEEPVDITPYLDQLDE,2.66
